This note sets out measurements from IntAct's records for PubMed 16803958.

To fix the notation:
B1: Protein CBFA2T1 (Homo sapiens), Q06455-4 (parent)
chain: MPDSPVDVKTQSRLTPPTMPPPPTTQGAPRTSSFTPTTLTNGTSHSPTALNGAPSPPNGFSNGPSSSSSSSLANQQLPPACGARQLSKLKRFLTTLQQFGNDISPEIGERVRTLVLGLVNSTLTIEEFHSKLQEATNFPLRPFVIPFLKANLPLLQRELLHCARLAKQNPAQYLAQHEQLLLDASTTSPVDSSELLLDVNENGKRRTPDRTKENGFDREPLHSEHPSKRPCTISPGQRYSPNNGLSYQPNGLPHPTPPPPQHYRLDDMAIAHHYRDSYRHPSHRDLRDRNRPMGLHGTRQEEMIDHRLTDREWAEEWKHLDHLLNCIMDMVEKTRRSLTVLRRCQEADREELNYWIRRYSDAEDLKKGGGSSSSHSRQQSPVNPDPVALDAHREFLHRPASGYVPEEIWKKAEEAVNEVKRQAMTELQKAVSEAERKAHDMITTERAKMERTVAEAKRQAAEDALAVINQQEDSSESCWNCGRKASETCSGCNTARYCGSFCQHKDWEKHHHICGQTLQAQQQGDTPAVSSSVTPNSGAGSPMDTPPAATPRSTTPGTPSTIETTPR

The variants in this assay derive from B1. As to conditions: with TCF12, Q99081-3.
Chain of TCF12, Q99081-3 (Q99081 other isoform, or with tags, fused parts or gaps): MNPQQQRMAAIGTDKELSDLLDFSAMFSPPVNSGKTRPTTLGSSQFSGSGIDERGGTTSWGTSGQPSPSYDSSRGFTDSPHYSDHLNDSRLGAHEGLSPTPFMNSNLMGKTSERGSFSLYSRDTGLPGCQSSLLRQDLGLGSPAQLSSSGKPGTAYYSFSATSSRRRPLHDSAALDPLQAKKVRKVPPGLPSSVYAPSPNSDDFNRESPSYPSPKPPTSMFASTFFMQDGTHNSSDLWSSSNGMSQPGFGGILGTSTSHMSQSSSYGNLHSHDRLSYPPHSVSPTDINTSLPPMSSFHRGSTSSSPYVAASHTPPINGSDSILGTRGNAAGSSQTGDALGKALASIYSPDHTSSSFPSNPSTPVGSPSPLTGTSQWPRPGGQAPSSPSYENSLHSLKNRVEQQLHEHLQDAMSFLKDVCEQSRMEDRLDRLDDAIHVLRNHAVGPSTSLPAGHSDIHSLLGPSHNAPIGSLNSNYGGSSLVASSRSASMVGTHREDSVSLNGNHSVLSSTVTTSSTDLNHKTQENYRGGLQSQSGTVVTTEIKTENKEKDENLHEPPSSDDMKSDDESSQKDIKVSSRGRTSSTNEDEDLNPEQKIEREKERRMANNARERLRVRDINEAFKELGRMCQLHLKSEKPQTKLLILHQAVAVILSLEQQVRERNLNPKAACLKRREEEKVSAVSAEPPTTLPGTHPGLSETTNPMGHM
Turning to L89A, the “effect of a mutation on the interaction” value is on record as “decreasing interaction strength”.

Regarding R91D, the “effect of a mutation on the interaction” value was “disrupting interaction strength”.

In the case of F147A, the “effect of a mutation on the interaction” value is recorded as “disrupting interaction strength”.

Regarding R141D, the “effect of a mutation on the interaction” value was “disrupting interaction strength”.

Regarding R141A, the “effect of a mutation on the interaction” value was “disrupting interaction strength”.

As for L89A;R141D, the “effect of a mutation on the interaction” value is listed as “disrupting interaction strength”.

For the variant K88A, the “effect of a mutation on the interaction” value is listed as “disrupting interaction strength”.

Consider K88D, for which the “effect of a mutation on the interaction” value is given as “disrupting interaction strength”.

For the variant F92A;F147A, the “effect of a mutation on the interaction” value is “disrupting interaction strength”.

As for L96A, the “effect of a mutation on the interaction” value was “decreasing interaction strength”.

With F92A, the “effect of a mutation on the interaction” value is on record as “disrupting interaction strength”.
